Experimental data reported in patent EP1473042A1 (City of Hope, dated 2004).
Where a chain is given by its changes, count along the chain named.

B1: RXRm, human RXRα with the single point mutation Asp 322→Pro in the ligand binding domain (receptor, UniProt P19793 1-462, looked up)
chain: MDTKHFLPLDFSTQVNSSLTSPTGRGSMAAPSLHPSLGPGIGSPGQLHSPISTLSSPINGMGPPFSVISSPMGPHSMSVPTTPTLGFSTGSPQLSSPMNPVSSSEDIKPPLGLNGVLKVPAHPSGNMASFTKHICAICGDRSSGKHYGVYSCEGCKGFFKRTVRKDLTYTCRDNKDCLIDKRQRNRCQYCRYQKCLAMGMKREAVQEERQRGKDRNENEVESTSSANEDMPVERILEAELAVEPKTETYVEANMGLNPSSPNDPVTNICQAADKQLFTLVEWAKRIPHFSELPLDDQVILLRAGWNELLIASFSHRSIAVKPGILLATGLHVHRNSAHSAGVGAIFDRVLTELVSKMRDMQMDKTELGCLRAIVLFNPDSKGLSNPAEVEALREKVYASLEAYCKHKYPEQPGRFAKLLLRLPALRSIGLKCLEHLFFFKLIGDTPIDTFLMEMLEAPHQMT
notes: mature; also called mutant RXR; RXR mutant
B2: human RXRα (9-cis retinoic acid receptor), full-length, wild type (receptor, UniProt P19793 1-462, looked up)
chain: B1 chain with P322D
notes: mature; also called wild-type RXR
B3: GST-GRIP1 (glutathione-S-transferase fused to the three receptor interaction domains of mouse GRIP1, Arg 625 - Lys 765) (other, UniProt Q61026 625-765, looked up)
chain: RAEGHSRLHDSKGQTKLLQLLTTKSDQMEPSPLPSSLSDTNKDSTGSLPGPGSTHGTSLKEKHKILHRLLQDSSSPVDLAKLTAEATGKELSQESSSTAPGSEVTVKQEPASPKKKENALLRYLLDKDDTKDIGLPEITPK
notes: range 625-765; Expressed in E. coli, purified on glutathione-sepharose; also called CoA; not shown: glutathione-S-transferase (GST)

What was measured:
[1] = biological target: T1, rat FXR (farnesoid X-activated receptor), full-length (rat, UniProt Q62735 1-469); test: DNA binding as heterodimer (Figure 5 and data not shown)
T1 construct: mature; in vitro translated for the mobility shift assays; also called bile acid nuclear receptor; BAR
T1 sequence (looked up): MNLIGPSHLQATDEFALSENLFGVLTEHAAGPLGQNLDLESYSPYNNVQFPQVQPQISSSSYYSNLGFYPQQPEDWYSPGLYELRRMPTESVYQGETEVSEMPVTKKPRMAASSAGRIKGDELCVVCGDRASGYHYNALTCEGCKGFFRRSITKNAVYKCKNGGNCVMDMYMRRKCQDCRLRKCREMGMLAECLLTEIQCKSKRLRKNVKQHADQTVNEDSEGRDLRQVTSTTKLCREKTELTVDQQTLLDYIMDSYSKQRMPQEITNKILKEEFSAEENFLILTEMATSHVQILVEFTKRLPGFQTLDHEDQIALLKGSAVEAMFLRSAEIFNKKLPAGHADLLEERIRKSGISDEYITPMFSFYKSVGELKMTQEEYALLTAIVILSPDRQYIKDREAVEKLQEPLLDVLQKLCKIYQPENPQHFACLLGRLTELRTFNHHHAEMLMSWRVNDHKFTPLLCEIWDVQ

[2] = biological target: GST-GRIP1 (glutathione-S-transferase fused to the three receptor interaction domains of mouse GRIP1, Arg 625 - Lys 765) (mouse) (UniProt Q61026); test: electrophoretic mobility shift, DR1 probe, 5 µg GST-GRIP1, LG268 0-1000 nM
[3] = biological target: GST-GRIP1 (glutathione-S-transferase fused to the three receptor interaction domains of mouse GRIP1, Arg 625 - Lys 765) (mouse) (UniProt Q61026); test: phosphorimager quantitation of the mobility shift autoradiogram (Figure 4)
[4] = biological target: T1, rat FXR (farnesoid X-activated …); test: electrophoretic mobility shift, hsp27 EcRE probe, in vitro translated FXR + RXR
[5] = biological target: B2; test: electrophoretic mobility shift, DR1 probe, increasing LG268

Binder: B1
- binding result [1]: binds
- fold decrease in potency of coactivator recruitment compared to wild type RXR [2]: 100 fold
- fold higher concentration of ligand (LG268) required for recruitment of coactivator, against wild-type RXR [3]: 100 fold

Binder: B2
- binding result [4]: binds

Binder: B3
- binding result [5]: binds
